From PMC4159138, “Fission Yeast Pxd1 Promotes Proper DNA Repair by Activating Rad16^XPF and Inhibiting Dna2” (PLoS Biology, 2014) come the findings set out here.

The target in series [1] is Dna2;Cdc24-YFH (Schizosaccharomyces …, UniProt Q9URU2;O75004 1-1397;1-501, |). As to the kind of experiment: EMSA; 1 mM EDTA, no divalent cations; 100-300 ng Dna2-Cdc24; 50 mM Tris-HCl pH 7.5, 1 mM EDTA, 1 mM DTT, 0.1 mg/ml BSA, 50 mM NaCl, 5% glycerol, 15 fmol DNA in 10 µl, room temperature 30 min; 5% PAGE in 1x TBE. The settings on record: protein: native;native; tags: none stated (co-expressed with Cdc24-YFH);YFP-FLAG-His6; copies: 1;1; label: 5' 32P on oligo461; 18 bp duplex with 5' overhang 31 nt on oligo461. (Mobility shift assays separate free from complexed probe on a gel.)
Chain of Dna2;Cdc24-YFH (Q9URU2 whole entry, chain 1 of 2): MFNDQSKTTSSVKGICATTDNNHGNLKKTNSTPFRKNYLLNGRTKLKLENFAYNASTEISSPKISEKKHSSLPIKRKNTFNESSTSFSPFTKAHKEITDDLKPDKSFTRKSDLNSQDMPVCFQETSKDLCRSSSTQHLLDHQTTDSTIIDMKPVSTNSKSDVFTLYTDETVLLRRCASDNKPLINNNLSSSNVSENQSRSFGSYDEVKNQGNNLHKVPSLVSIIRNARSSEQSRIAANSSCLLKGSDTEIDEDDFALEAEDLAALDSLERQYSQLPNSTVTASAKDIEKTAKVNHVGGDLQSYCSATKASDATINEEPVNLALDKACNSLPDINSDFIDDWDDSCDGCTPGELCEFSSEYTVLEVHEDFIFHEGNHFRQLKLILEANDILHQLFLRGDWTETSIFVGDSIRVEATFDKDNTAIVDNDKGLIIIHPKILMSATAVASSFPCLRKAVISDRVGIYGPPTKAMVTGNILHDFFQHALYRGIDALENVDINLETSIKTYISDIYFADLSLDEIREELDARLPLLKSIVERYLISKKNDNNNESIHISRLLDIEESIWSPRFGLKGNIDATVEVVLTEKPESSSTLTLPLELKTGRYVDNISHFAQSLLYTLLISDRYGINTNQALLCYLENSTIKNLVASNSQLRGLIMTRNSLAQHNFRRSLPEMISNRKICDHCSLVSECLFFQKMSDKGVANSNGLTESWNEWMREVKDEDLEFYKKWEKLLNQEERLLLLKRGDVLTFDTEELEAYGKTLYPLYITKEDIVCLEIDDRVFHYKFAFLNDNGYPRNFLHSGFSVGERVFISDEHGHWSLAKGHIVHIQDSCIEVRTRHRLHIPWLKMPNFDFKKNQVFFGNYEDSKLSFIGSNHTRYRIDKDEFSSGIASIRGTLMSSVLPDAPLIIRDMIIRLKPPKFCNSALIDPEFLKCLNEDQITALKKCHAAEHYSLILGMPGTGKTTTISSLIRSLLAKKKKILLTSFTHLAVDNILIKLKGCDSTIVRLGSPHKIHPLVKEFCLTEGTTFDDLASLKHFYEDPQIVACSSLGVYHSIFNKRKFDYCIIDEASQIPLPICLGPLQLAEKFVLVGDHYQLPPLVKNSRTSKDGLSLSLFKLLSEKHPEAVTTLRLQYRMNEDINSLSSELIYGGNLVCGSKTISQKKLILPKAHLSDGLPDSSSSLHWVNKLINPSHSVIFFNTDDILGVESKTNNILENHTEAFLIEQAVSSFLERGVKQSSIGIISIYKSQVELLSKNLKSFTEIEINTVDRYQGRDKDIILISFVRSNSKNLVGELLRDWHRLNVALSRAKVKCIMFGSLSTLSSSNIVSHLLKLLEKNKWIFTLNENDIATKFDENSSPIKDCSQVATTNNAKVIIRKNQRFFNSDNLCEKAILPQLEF
Chain of Dna2;Cdc24-YFH (O75004 whole entry, chain 2 of 2): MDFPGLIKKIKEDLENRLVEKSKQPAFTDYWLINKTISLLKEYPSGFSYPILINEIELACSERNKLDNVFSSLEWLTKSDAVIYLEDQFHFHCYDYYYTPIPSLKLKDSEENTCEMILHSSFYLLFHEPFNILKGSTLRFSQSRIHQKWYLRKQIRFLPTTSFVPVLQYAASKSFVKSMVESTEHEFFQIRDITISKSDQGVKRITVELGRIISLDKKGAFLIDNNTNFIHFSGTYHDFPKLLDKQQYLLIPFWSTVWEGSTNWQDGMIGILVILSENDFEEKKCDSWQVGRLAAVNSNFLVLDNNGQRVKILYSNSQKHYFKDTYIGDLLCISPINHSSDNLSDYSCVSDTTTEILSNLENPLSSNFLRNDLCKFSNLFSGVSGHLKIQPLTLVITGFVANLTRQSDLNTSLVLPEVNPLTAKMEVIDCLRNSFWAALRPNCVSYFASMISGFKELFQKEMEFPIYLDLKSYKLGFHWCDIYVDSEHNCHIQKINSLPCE

Series [2] has as its target Dna2;Cdc24-YFH;RPA (Schizosaccharomyces …, UniProt Q9URU2;O75004;Q92372;Q92373;Q92374 1-1397;1-501;1-609;1-279;1-104, ||). As to the kind of experiment: EMSA; 1 mM EDTA; supershifted higher-order complex, no Pxd1; 50 mM Tris-HCl pH 7.5, 1 mM EDTA, 1 mM DTT, 0.1 mg/ml BSA, 50 mM NaCl, 5% glycerol, 15 fmol DNA in 10 µl, room temperature 30 min; 5% PAGE in 1x TBE. The settings on record: protein: native;native;recombinant; tags: none stated (co-expressed with Cdc24-YFH);YFP-FLAG-His6;6xHis-GST on Rpa1 in plasmid pDB2129; copies: 1;1;1;1;1; label: 5' 32P on oligo461; 18 bp duplex with 5' overhang 31 nt on oligo461.

B1: 5' overhang DNA (oligo461/oligo463) (dsDNA)
DNA 1: CACGCTACCGAATTCTGACTTGCTAGGACATCTTTGCCCACGTTGACCC
DNA 2: GGGTCAACGTGGGCAAAG
Consider B1, for which the binding result in series [1] and in series [2] was “binds” in each case.
